Assay results as given in patent US20240165140A1, “MEDICATION FOR INHIBITING DNA-PKCS” (TSINGHUA UNIVERSITY, priority 2017, published 2024).
Entries after “also recorded” stand apart in the source; their conditions may differ.

Assays:
[1] = system: A549-shP53 tumor; assay: Subcutaneous tumor growth in nude mice, A549-shP53; type: in vivo; settings: A549-shP53, Day 27; compared with control group; Endostatin 20 mg/kg i.p. once a day, Etoposide 2 mg/kg i.p. once every two days
Protocol: (§1) Tumor-bearing nude mice were randomly divided into four groups with 6 to 8 animals for each group, and different drug treatments were performed. […] Tumor volume was measured every other day. 2 to 4 weeks after administration, the mice were sacrificed and the tumor tissue was removed for further use.

[2] = system: P53-deficient tumor cells (H1299-NC, A549-shP53); assay: PI staining apoptosis by flow cytometry, P53-deficient tumor cells; type: cell-based; settings: Endostatin 10 μg/ml added 1 h before Etoposide 1 μM, 16 h
Protocol: (§2) The apoptotic cells and adherent cells floating in the culture medium were collected, and the cells were suspended in 500 μl PBS containing 0.05 mg/ml propidium iodide (PI), stained for 15 min at room temperature in dark, and detected by flow cytometry (BD FACS Calibur). PI-positive cells represent apoptotic cells.

[3] = system: DNA-PKcs, PARP, γH2AX and Caspase-3 signaling pathways; assay: Immunoblotting of DNA damage and apoptotic pathway, tumor cells with normal P53 function; settings: H1299-P53, A549-NC; Endostatin 10 μg/ml, Etoposide 10 μM 16 h, z-DEVD-fmk 10 μM; Endostatin and z-DEVD-fmk added 1 h before Etoposide
Excerpt: (§6) In this example, tumor cells (H1299-NC, H1299-P53, A549-NC, A549-shP53) were divided into six treatment groups.

[4] = system: MDA-MB-435S cells; assay: CCK8 cell activity, melanoma MDA-MB-435S; type: cell-based; settings: MDA-MB-435S (P53 mutant); operation process as in Example 5
Protocol: (§3) First, a lentivirus kit (purchased from Shanghai Genepharma) was used to construct a P53 stably overexpressing H1299 cell line (H1299-P53) and a P53 stably knockdown A549 cell line […]. The P53 sequence targeted by the shRNA used to knock down P53 in A549 cells was 5′-[…]-3′ (SEQ ID NO: 4). Virus transfection and the construction of stable cell lines were performed according to the kit instructions. […] After treatment for 12 hours, the drug-containing medium was replaced with a normal medium and the cells were further cultured for 72 hours. Cell activity was measured according to the instructions of the CCK8 kit (Dojindo, Tokyo, Japan).
This example used two cell lines of another tumor type (melanoma), the MDA-MB-435S (P53 mutant) and A375 (P53 wild type) cell lines, to verify the regulatory function of Endostatin on the chemotherapeutic sensitivity of other types of tumor cells with different P53 status. Operation process was the same as in Example 5.

[5] = system: tumor cells with normal P53 function (H1299-P53, A549-NC); assay: PI staining apoptosis by flow cytometry, tumor cells with normal P53 function; type: cell-based; settings: Endostatin 10 μg/ml added 1 h before Etoposide 1 μM, 16 h
Protocol: as §2

[6] = system: H1299-NC tumor; assay: Subcutaneous tumor growth in nude mice, H1299-NC; type: in vivo; settings: Day 19, compared with control group, Endostatin 20 mg/kg i.p. once a day, Etoposide 2 mg/kg i.p. once every two days
Protocol: as §1

[7] = system: DNA-PKcs, PARP, γH2AX and Caspase-3 signaling pathways; assay: Immunoblotting of DNA damage and apoptotic pathway, P53-deficient tumor cells; type: cell-based; settings: H1299-NC, A549-shP53; Endostatin 10 μg/ml, Etoposide 10 μM 16 h, z-DEVD-fmk 10 μM; Endostatin and z-DEVD-fmk added 1 h before Etoposide
Excerpt: as §6

[8] = molecular target: T1, DNA-PKcs (Homo sapiens, UniProt P78527); assay: Endostatin-coupled CNBr-activated Sepharose 4B pull-down and co-immunoprecipitation; type: binding
T1 construct: incubated with A549 cell lysate; endogenous in cells; host or cells: A549 and H1299 cells (lysates)
T1 sequence (P78527 whole entry): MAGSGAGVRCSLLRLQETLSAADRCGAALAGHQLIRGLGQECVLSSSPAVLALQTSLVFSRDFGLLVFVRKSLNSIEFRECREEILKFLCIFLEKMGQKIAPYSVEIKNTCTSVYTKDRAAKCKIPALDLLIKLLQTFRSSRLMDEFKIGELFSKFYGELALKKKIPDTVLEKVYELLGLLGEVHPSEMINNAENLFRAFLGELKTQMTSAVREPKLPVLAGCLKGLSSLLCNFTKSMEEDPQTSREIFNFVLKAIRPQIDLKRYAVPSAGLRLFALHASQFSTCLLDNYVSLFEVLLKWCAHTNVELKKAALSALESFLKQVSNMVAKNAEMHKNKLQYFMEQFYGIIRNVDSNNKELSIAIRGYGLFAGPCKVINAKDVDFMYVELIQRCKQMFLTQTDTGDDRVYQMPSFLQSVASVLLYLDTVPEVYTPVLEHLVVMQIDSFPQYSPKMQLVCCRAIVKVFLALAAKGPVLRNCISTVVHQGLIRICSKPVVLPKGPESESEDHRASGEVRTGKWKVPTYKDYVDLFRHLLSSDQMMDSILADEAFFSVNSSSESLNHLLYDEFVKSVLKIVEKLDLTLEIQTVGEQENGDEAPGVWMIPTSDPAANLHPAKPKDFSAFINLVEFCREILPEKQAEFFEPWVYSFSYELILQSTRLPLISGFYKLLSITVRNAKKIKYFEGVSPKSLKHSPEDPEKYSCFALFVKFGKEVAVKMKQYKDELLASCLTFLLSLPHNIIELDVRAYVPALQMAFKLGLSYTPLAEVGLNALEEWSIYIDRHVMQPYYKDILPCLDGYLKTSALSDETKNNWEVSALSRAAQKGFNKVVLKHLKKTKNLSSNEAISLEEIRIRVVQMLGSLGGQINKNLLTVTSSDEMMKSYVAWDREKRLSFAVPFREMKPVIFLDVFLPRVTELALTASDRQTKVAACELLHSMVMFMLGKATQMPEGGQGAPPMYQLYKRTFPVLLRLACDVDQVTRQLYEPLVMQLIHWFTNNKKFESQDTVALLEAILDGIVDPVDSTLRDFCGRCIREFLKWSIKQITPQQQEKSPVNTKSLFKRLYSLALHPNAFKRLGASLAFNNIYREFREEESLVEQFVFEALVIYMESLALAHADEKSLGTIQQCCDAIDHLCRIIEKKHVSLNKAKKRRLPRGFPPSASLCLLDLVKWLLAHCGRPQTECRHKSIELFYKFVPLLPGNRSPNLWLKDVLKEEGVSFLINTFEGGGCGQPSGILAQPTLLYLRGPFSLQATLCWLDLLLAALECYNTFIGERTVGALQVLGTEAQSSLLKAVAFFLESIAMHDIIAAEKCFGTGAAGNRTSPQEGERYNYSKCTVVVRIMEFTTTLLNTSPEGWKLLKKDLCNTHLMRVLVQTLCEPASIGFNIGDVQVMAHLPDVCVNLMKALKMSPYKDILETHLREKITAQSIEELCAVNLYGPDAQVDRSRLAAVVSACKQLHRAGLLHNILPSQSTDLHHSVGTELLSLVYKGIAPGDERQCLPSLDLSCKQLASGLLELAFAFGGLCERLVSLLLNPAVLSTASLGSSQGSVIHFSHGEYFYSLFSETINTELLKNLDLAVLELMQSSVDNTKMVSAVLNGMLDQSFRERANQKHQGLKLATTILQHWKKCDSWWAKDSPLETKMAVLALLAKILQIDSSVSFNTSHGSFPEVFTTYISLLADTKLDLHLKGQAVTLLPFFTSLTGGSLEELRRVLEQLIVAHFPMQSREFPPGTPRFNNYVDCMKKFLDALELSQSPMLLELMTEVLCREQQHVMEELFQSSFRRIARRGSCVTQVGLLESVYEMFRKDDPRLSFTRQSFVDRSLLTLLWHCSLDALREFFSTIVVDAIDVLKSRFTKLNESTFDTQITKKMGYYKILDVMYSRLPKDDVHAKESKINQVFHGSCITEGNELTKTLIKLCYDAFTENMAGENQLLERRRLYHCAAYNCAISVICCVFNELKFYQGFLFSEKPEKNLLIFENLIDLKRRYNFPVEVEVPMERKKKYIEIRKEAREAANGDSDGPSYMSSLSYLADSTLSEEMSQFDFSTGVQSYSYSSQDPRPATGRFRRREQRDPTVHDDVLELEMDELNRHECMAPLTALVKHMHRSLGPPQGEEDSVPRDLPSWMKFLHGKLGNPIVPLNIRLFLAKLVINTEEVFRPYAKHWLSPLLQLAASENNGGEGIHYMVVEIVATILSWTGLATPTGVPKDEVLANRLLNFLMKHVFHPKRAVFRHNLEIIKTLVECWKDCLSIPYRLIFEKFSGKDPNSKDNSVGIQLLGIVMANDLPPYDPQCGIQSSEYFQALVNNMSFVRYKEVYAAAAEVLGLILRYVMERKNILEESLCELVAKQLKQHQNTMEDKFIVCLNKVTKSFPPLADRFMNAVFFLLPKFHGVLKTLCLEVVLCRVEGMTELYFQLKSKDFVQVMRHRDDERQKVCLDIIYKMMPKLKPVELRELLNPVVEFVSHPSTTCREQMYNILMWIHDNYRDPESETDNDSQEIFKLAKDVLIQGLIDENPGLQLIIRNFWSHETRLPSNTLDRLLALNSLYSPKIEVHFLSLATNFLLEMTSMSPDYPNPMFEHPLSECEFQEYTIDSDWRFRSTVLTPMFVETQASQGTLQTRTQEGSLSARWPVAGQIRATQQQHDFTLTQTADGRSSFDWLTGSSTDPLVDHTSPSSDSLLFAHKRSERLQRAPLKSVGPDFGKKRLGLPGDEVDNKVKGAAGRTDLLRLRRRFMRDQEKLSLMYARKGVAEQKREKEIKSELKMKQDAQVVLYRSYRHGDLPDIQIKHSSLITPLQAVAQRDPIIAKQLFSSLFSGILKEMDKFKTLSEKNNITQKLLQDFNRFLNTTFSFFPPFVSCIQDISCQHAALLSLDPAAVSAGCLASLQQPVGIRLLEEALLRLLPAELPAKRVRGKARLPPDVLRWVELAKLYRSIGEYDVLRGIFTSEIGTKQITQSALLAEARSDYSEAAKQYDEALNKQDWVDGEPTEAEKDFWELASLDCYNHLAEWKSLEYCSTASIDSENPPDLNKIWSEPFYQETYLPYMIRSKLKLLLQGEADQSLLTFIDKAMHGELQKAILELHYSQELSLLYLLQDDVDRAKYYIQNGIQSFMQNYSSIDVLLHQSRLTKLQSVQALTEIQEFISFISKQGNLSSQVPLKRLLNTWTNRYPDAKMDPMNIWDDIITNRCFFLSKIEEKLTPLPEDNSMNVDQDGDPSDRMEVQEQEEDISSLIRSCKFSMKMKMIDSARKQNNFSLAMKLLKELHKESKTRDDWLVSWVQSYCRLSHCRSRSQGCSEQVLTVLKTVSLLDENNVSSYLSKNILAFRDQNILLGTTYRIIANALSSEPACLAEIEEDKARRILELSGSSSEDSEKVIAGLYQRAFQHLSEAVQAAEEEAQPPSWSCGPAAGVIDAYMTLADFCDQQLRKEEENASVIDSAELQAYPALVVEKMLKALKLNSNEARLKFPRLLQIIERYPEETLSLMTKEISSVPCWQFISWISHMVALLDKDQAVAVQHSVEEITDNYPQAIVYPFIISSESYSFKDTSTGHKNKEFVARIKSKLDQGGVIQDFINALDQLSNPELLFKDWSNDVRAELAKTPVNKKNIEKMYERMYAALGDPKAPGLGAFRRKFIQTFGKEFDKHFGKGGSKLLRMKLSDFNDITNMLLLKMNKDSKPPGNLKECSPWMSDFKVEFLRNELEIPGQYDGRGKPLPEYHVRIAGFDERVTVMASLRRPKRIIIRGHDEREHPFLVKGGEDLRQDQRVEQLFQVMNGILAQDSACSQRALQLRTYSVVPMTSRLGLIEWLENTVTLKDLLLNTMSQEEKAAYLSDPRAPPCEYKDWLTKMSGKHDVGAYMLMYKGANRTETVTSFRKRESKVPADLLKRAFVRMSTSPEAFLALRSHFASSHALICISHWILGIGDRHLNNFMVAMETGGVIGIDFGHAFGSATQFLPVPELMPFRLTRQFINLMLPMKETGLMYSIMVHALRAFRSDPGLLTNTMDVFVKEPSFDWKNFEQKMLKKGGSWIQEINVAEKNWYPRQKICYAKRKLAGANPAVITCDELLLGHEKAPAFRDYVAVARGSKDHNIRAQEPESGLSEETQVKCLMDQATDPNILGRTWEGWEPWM
Protocol: CNBr-activated Sepharose 4B used in this example was purchased from Sigma. First, according to the instructions, endostatin and bovine serum albumin (BSA) were coupled to CNBr-activated Sepharose 4B, respectively, and incubated with A549 cell lysate. The pull down proteins were subjected to SDS-PAGE electrophoresis and stained with Coomassie blue. […] To further verify the interaction between the two, H1299 and A549 cells were incubated with Endostatin for 2 hours for endocytosis. The cell lysate was mixed with the antibody of DNA-PKcs, and then co-incubated with protein A/G beads.

[9] = system: P53-deficient tumor cells (H1299-NC and A549-shP53); assay: CCK8 cell activity, P53-deficient tumor cells; type: cell-based
Protocol: as §3
(§4) In this example, another chemical drug, Doxorubicin, was used to verify that Endostatin can enhance the sensitivity of P53-deficient tumor cells to chemotherapy. Operation process was the same as in Example 5.

[10] = system: PCNA and DNA-PKcs protein in H1299-P53 and A549-NC tumor tissues; assay: Immunofluorescence of PCNA and DNA-PKcs in tumor tissue, mouse tumor model with normal P53 function; type: in vivo, nude mice; settings: H1299-P53 and A549-NC tumors of Example 12; quantitative immunofluorescence
Protocol: as §1
(§5) The tumor tissue removed in Example 12 was fixed and embedded, and then sectioned. PCNA (a marker molecule indicating the vigorous proliferation status of tumor cells) and DNA-PKcs protein in tumor tissues were stained by immunofluorescence technique, and were observed and imaged with a laser confocal microscope (Nikon A1). The experimental results are shown in FIG. 14A-14D, in which blue represents the nucleus of DAPI-stained cells, green represents the DNA-PKcs protein, and red represents the PCNA protein. Taking the H1299-NC tumor tissue shown in FIG. 14A as an example, the first column on the left represents DNA-PKcs single staining, and the green area represents the DNA-PKcs protein expression level. The second column on the left represents the results of DNA-PKcs (green) merged with nucleus (blue), and the overlapping part is shown in cyan. The third column on the left represents PCNA single staining, and the red area represents the PCNA protein expression level, indicating the strength of tumor cell proliferation. […]

[11] = system: tumor cells with normal P53 function (H1299-P53 and A549-NC); assay: CCK8 cell activity, tumor cells with normal P53 function; type: cell-based
Protocol: as §3, §4

[12] = system: PCNA and DNA-PKcs protein in H1299-NC and A549-shP53 tumor tissues; assay: Immunofluorescence of PCNA and DNA-PKcs in tumor tissue, P53-deficient mouse tumor model; type: in vivo, nude mice; settings: H1299-NC and A549-shP53 tumors of Example 12; quantitative immunofluorescence
Protocol: as §1, §5

[13] = Operation process as in Example 5, Doxorubicin instead of Etoposide

B1: Endostatin: recombinant natural human endostatin expressed by E. coli, from Protgen, SEQ ID NO: 2 (protein)
chain: MHSHRDFQPVLHLVALNSPLSGGMRGIRGADFQCFQQARAVGLAGTFRAFLSSRLQDLYSIVRRADRAAVPIVNLKDELLFPSWEALFSGSEGPLKPGARIFSFDGKDVLRHPTWPQKSVWHGSDPNGRRLTESYCETWRTEAPSATGQASSLLGGRLLGQSAASCHHAYIVLCIENSFMTASK
modifications: The amino acid sequence of natural human endostatin
- tumor suppression rate [1]: 37.1%
- Effect on ability of Etoposide to promote apoptosis (PI-positive cells) [2]: could enhance the ability of Etoposide to promote the apoptosis of tumor cells
- DNA-PKcs, PARP, γH2AX and Caspase-3 signaling pathway levels [3]: did not affect the above-mentioned signaling pathway levels
- Effect on toxicity of Etoposide to tumor cells (cell activity) [4]: could enhance the toxicity of Etoposide to tumor cells
- Effect on the pro-apoptotic effect of Etoposide (PI-positive cells) [5]: did not significantly enhance the pro-apoptotic effect of Etoposide
- tumor suppression rate [6]: 19.6%
- DNA-PKcs, PARP, γH2AX and Caspase-3 signaling pathway levels [7]: did not affect the above-mentioned signaling pathway levels
- Endostatin-binding protein identified by pull-down, SDS-PAGE and mass spectrometric analysis ([8]; A549 cell lysate, BSA-coupled Sepharose as control): DNA-PKcs was identified as a protein interacted with Endostatin
- DNA-PKcs precipitated by Endostatin-coupled CNBr-activated Sepharose 4B (immunoblotting) ([8]; H1299 and A549 cell lysates): can be precipitated by CNBr-activated Sepharose 4B coupled with Endostatin
- Co-immunoprecipitation with antibody of DNA-PKcs ([8]; H1299 and A549 cells incubated with Endostatin for 2 hours): Endostatin could be co-precipitated by DNA-PKcs
- Effect on toxicity of Etoposide to tumor cells (cell activity) ([9]; Endostatin 10 μg/ml pretreatment 1 h, Etoposide 0, 0.1, 1, 10 μM, 12 hours treatment, 72 hours further culture): could enhance the toxicity of Etoposide to tumor cells
- Effect on toxicity of Doxorubicin to tumor cells (cell activity) [9, 13]: could enhance the toxicity of Doxorubicin to tumor cells
- Tumor cell proliferation (PCNA) and protein level of DNA-PKcs in tumor tissue [10]: could reduce the proliferation of tumor cells and reduce the protein level of DNA-PKcs; also recorded: did not enhance the inhibitory effect of Etoposide on tumor proliferation and the effect of Etoposide on the protein levels of DNA-PKcs
- Effect on the inhibitory effect of Etoposide on cell activity ([11]; Endostatin 10 μg/ml pretreatment 1 h, Etoposide 0, 0.1, 1, 10 μM): did not significantly enhance the inhibitory effect of Etoposide
- Effect on the inhibitory effect of Doxorubicin on cell activity [11, 13]: did not significantly enhance the inhibitory effect of Doxorubicin
- Tumor cell proliferation (PCNA) and protein level of DNA-PKcs in tumor tissue [12]: can attenuate tumor cell proliferation to a certain extent and reduce the protein level of DNA-PKcs
